The numbers were not newly measured in PMC4487222, which cites them from elsewhere.

The data set deals with CheY (Thermotoga maritima) (UniProt Q56312).
Sequence of CheY (Thermotoga maritima) (Q56312 whole entry): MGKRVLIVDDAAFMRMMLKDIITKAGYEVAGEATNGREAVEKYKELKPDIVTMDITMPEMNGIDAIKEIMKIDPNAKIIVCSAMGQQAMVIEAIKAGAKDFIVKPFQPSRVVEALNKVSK

Sequence of CheA (Q56310 whole entry): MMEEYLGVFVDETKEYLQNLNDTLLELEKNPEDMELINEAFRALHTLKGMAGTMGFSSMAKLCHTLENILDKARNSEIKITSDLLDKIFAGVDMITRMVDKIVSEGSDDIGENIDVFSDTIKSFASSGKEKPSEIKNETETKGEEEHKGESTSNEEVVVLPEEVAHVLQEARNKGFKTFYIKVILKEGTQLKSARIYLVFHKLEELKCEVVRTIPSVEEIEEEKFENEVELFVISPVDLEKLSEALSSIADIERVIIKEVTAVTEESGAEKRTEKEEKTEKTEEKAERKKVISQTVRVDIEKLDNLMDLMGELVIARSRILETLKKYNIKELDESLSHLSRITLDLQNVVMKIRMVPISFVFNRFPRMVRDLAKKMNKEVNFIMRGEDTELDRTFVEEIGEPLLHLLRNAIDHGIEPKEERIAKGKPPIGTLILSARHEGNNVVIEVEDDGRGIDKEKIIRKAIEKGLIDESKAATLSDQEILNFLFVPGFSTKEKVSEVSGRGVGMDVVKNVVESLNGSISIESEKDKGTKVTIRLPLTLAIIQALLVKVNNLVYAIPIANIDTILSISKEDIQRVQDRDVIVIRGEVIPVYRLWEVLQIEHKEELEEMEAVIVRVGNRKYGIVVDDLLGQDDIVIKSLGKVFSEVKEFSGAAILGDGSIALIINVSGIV

Consider CheA (from UniProt Q56310), for which the Kd (commonly the concentration at which binding is half-saturated) was 200 nM.
